This note sets out measurements from patent publication US20120093805A1 (Kyowa Kirin, published 2012).

The term koff denotes a measure of how fast the partners let go of each other. For orientation: kon means a measure of how fast the partners come together. A higher kon goes with faster complex formation. As a reminder, the EC50 (read off the curve) is the concentration giving half of the maximal effect.

In experiment [1] the target is T1, Lec8-produced CD27-Fc (human sugar chain-deficient CD27-Fc) (human, O-linked sugar chains to which galactose is not bound (Tn antigen), from production in Lec8 cells).
T1 construct: also called Lec8-derived CD27-Fc
Put plainly: SPR, BIACORE T100, as in Example 7(1): Lec8-derived CD27-Fc on CM5 chip, antibody as analyte, bivalent analyte model. The protocol: In order to analyze binding activity of anti-sugar chain-deficient CD27 humanized antibody to human sugar chain-deficient CD27 reaction kinetically, it was measured in the same manner as in Example 7(1) using BIACORE T100 (manufactured by BIACORE).

In experiment [2] the target is T2, human sugar chain-deficient CD27 expressed on Lec8 cells (human, UniProt P26842 20-260, O-linked sugar chains to which galactose is not bound, from expression in Lec8 cells).
T2 construct: CD27/Lec8-4 and CD27/Lec8-M19 are two clones that carry the same protein; also called CD27/Lec8-4; CD27/Lec8-M19
T2 sequence: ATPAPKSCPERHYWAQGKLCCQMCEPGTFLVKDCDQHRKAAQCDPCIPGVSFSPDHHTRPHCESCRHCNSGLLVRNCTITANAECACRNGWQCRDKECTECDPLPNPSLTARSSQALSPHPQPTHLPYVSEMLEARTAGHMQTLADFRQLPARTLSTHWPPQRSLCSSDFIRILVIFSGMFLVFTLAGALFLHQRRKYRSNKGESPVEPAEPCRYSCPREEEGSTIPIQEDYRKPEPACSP
Description: flow cytometry (FCM) on CD27/Lec8-M19 cells [A]. The protocol: Reaction specificity of the anti-sugar chain-deficient CD27 humanized antibody was measured in the same manner as in Example 7(2). Regarding the cell lines, the CD27/DG44-4 cell and CD27/Lec8-M19 cell having almost the same antigen expression quantity, prepared by the same method of Example 2, were used as assaying cells.
On the technique in general: Flow cytometry measures light scatter and fluorescence of single cells or particles in a stream.

Experiment [3] concerns the target T2, human sugar chain-deficient CD27 …. Description: flow cytometry (FCM) on CD27/Lec8-4 cells [A) (a]. The procedure: The CD27/DG44-4, CD27/Lec8-4 and Lec8 cells constructed in the same manner as in Example 2 were used as assay cells. The CD27/DG44-4 subcultured in an HT-medium supplemented with 500 μg/mL of G418, and the CD27/Lec8-4 subcultured in an HT-medium supplemented with 50 nmol/L of MTX and 500 μg/mL of G418 were peeled off using a 0.02% EDTA solution, and then washed with PBS.
After the reaction was complete, centrifugation was carried out twice with PBS, and ALEXA Fluoro 488-labeled anti-human immunoglobulin G(H+L), ALEXA Fluoro 488-labeled anti-mouse immunoglobulin G(H+L) or ALEXA Fluoro 488-labeled anti-human immunoglobulin M(μ) as a secondary antibody was added at a concentration of 50 μL/well, followed by reaction at ice temperature under shading for 30 minutes.
Again, centrifugation was repeated twice using PBS, and the cells were washed and suspended in 500 μL of 1% BSA-PBS. The fluorescence of 510 to 530 nm excited with a 488 nm argon laser was measured by a flow cytometer (manufactured by Beckman Coulter, Cytomics FC500 MPL).

Experiment [4] concerns the target T1, Lec8-produced CD27-Fc (human sugar …). Description: SPR, Biacore T100; Lec8-derived CD27-Fc amine-coupled to CM5 chip, antibody as analyte, single-cycle kinetics, bivalent analyte model. The protocol: In order to kinetically analyze the binding activity of the anti-sugar chain-deficient CD27 chimeric antibodies chimeric KM4026, chimeric KM4028, and chimeric KM4030 to the human sugar chain-deficient CD27-Fc, the binding activity was measured by surface plasmon resonance method (SPR method). All of the following manipulations were carried out using Biacore T100 (manufactured by GE Healthcare Bio-Sciences).
The Lec8-derived CD27-Fc obtained in Example 1(7) was immobilized on a CM5 sensor chip (manufactured by GE Healthcare Bio-Sciences) by amine coupling. Assay samples (chimeric KM4026, chimeric KM4028, chimeric KM4030 and chimeric KM4031), which were serially 3-fold diluted from 9 μg/mL to give 5 different concentrations, were sequentially and continuously added to the CD27-Fc-immobilized chip in order of increasing concentrations, in accordance with an automated program (Single Kinetix), followed by measurement.
Using the analysis software, Biacore T100 Evaluation software (manufactured by Biacore) installed on the apparatus, the analysis was carried out using Bivalent Analyte Model to calculate thereby an association rate constant ka and a dissociation rate constant kd of each antibody for the human sugar chain-deficient CD27-Fc.
Background: SPR reads the build-up and loss of mass on a sensor chip optically.

Experiment [5] addresses T3, sugar chain-deficient cynomolgus CD27 (C-terminal His tag) expressed on Lec8 cells (cynomolgus).
T3 construct: whole, on cells; also called cynomolgus CD27/Lec8 cell; sugar chain-deficient cynomolgus CD27 cell
Description: flow cytometry (FCM) on cynomolgus CD27/Lec8 cells (Example 11(5)) [A]. The procedure:
Binding activity of the anti-sugar chain-deficient CD27 humanized antibodies HV0LV0, HV5LV0 and HV7LV0 for cynomolgus CD27 expression cells was measured by a fluorescent cell staining method (cytometer analysis) in the same manner as in Example 9(1). The cynomolgus CD27/DG44 cell and cynomolgus CD27/Lec8 cell prepared in Example 8 were used as the cynomolgus CD27 expression cells.

B1: anti-sugar chain-deficient CD27 chimeric antibody chimeric KM4030 (antibody, human IgG1, V domains shown)
VH: EVQLVESGGGLVQPGRSLKLSCVASGFTFNNYWMTWIRQAPGKGLEWIASITNSGGSTYYPDSVKGRFTISRDNAKGTLYLQMNSLRSEDTATYYCTRDVNTYYGYNALFDYWGQGVMVTVSS
VL: DIQMTQSPSVLSASVGDRVTLNCKASQNINEYLNWYQQKLGEAPKLLIYNTNNLQTGIPSRFSGSGSGTDFTLTISSLQPEDFAAYFCFQHNSWPYTFGAGTKLELK
notes: made in FUT8 knockout CHO cells, no core fucose; also called anti-sugar chain-deficient CD27 chimeric antibody KM4030
In the case of B1, in experiment [1], the Kd is 1.1 nM, the koff is 0.00082 s⁻¹ and the kon was 740000 M⁻¹ s⁻¹. The “EC50 (read off the curve)” value in experiment [2] was ~0.2 µg/mL. For the same molecule, in experiment [3], the “EC50 (read off the curve)” value is ~0.1 µg/mL. In experiment [4], this molecule gave a Kd of 1.07 nM, a koff of 0.00034 s⁻¹ and a kon of 290000 M⁻¹ s⁻¹.

B2: anti-sugar chain-deficient CD27 humanized antibody HV5LV0 (antibody, human IgG1, V domains shown)
VH: EVQLVESGGGLVKPGRSLRLSCAASGFTFNNYWMTWIRQAPGKGLEWIASITNSGGSTYYPDSVKGRFTISRDNAKGSLYLQMNSLRAEDTAVYYCTRDVNTYYGYNALFDYWGLGTLVTVSS
VL: DIQMTQSPSSLSASVGDRVTITCKASQNINEYLNWYQQKPGKAPKLLIYNTNNLQTGVPSRFSGSGSGTDFTLTISSLQPEDFATYYCFQHNSWPYTFGQGTKLEIK
In the case of B2, the “EC50 (read off the curve)” value in experiment [5] is ~0.2 µg/mL.

B3: anti-sugar chain-deficient CD27 humanized antibody HV7LV0 (antibody, human IgG1, V domains shown)
VH: EVQLVESGGGLVKPGRSLRLSCAASGFTFNNYWMTWIRQAPGKGLEWIASITNSGGSTYYPDSVKGRFTISRDNAKGSLYLQMNSLRAEDTATYYCTRDVNTYYGYNALFDYWGLGVLVTVSS
VL: DIQMTQSPSSLSASVGDRVTITCKASQNINEYLNWYQQKPGKAPKLLIYNTNNLQTGVPSRFSGSGSGTDFTLTISSLQPEDFATYYCFQHNSWPYTFGQGTKLEIK
Consider B3, for which the “EC50 (read off the curve)” value in experiment [5] is ~0.2 µg/mL.

B4: anti-sugar chain-deficient CD27 humanized antibody HV0LV0 (antibody, human IgG1, V domains shown)
VH: EVQLVESGGGLVKPGRSLRLSCAASGFTFSNYWMTWIRQAPGKGLEWVSSITNSGGSTYYPDSVKGRFTISRDNAKNSLYLQMNSLRAEDTAVYYCARDVNTYYGYNALFDYWGLGTLVTVSS
VL: DIQMTQSPSSLSASVGDRVTITCKASQNINEYLNWYQQKPGKAPKLLIYNTNNLQTGVPSRFSGSGSGTDFTLTISSLQPEDFATYYCFQHNSWPYTFGQGTKLEIK
B4: the half-maximal effective concentration (EC50 (read off the curve)) in experiment [5] is ~0.2 µg/mL.

B5: anti-sugar chain-deficient CD27 chimeric antibody chimeric KM4031 (antibody, human IgG1, V domains shown)
VH: EVQLVESGGGLVEPGRSMKLSCAASGFTFSDYGMAWVRQAPTKGLEWVATITYDGSIYYRDSVKGRFTISRDNAKSTLYLQMNSLRSEDTATYYCTRDPGLYYFDFWGQGVMVTVSS
VL: DIVMTQSPSSLAVSAGETVTLNCQSSQSLLYSGNQKNYLAWYQQKPGQSPKLLIYWASTRQSGVPDRFIGSGSGTDFTLTISSVQAEDLAIYYCQQYYNTPRTFGGGTKLELK
notes: made in FUT8 knockout CHO cells, no core fucose; also called chimeric KM403I
B5: in experiment [4], the Kd was found to be 0.51 nM, the koff came to 0.0002 s⁻¹ and the association rate constant (kon) came out at 400000 M⁻¹ s⁻¹.
